Experimental data published in US20180016312A1 (Pieris, published 2018).

B1: human angiopoietin-2 (ligand, UniProt O15123 19-496, looked up)
chain: YNNFRKSMDSIGKKQYQVQHGSCSYTFLLPEMDNCRSSSSPYVSNAVQRDAPLEYDDSVQRLQVLENIMENNTQWLMKLENYIQDNMKKEMVEIQQNAVQNQTAVMIEIGTNLLNQTAEQTRKLTDVEAQVLNQTTRLELQLLEHSLSTNKLEKQILDQTSEINKLQDKNSFLEKKVLAMEDKHIIQLQSIKEEKDQLQVLVSKQNSIIEELEKKIVTATVNNSVLQKQQHDLMETVNNLLTMMSTSNSAKDPTVAKEEQISFRDCAEVFKSGHTTNGIYTLTFPNSTEEIKAYCDMEAGGGGWTIIQRREDGSVDFQRTWKEYKVGFGNPSGEYWLGNEFVSQLTNQQRYVLKIHLKDWEGNEAYSLYEHFYLSSEELNYRIHLKGLTGTAGKISSISQPGNDFSTKDGDNDKCICKCSQMLTGGWWFDACGPSNLNGMYYPQRQNTNKFNGIKWYYWKGSGYSLKATTMMIRPADF
notes: Bought recombinant protein with a His tag (detected by anti-HIS-tag antibody); also called human Ang-2; hAng-2
B2: hNGAL lipocalin mutein SEQ ID NO: 9 (designed binder)
chain: QDSTSDLIPAPPLSKVPLQQNFQDNQFHGKWYVVGHAGNYILREDKDPGKMWATIYELKEDKSYDVTEVSFGPKKCNYRIWTFVPGSQPGEFTLGGIKSPPGGTSTLVRVVSTNYNQHAMVFFKHVLQNREFFEITLYGRTKELTSELKENFIRFSKSLGLPENHIVFPVPIDQCIDGSAWSHPQFEK
notes: Mutein of mature hNGAL; Biotinylated with NHS-PEG4-Biotin for the SPR assay

Experiments:
[1] = target: T1, hNGAL lipocalin mutein SEQ ID NO: 7; assay: solution competition ELISA; 0.1 nM SEQ ID NO: 7 with varied soluble ligand, free mutein captured on immobilised hAng-2
T1 construct: Mutein of mature hNGAL; Biotinylated with NHS-PEG4-Biotin for the SPR assay
T1 chain: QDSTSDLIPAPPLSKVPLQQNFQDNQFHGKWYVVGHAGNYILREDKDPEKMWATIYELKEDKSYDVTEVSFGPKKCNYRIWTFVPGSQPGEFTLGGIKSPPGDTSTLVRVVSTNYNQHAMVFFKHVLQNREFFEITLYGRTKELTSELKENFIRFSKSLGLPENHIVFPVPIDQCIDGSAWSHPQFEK
Method: (§1) In the following detailed experimental protocol, incubation and washing steps were performed as described above in the competition ELISA protocol (see Example 5).
(§2) The residual supernatants were discarded and 20 μl HRP-labeled anti-lipocalin-mutein antibody was added at a predetermined optimal concentration in PBS-T/BSA and incubated for 1 h at RT. […] After washing, 20 μl fluorogenic HRP substrate (Quantablue, Pierce) was added to each well, and the reaction was allowed to proceed for 60 minutes. The fluorescence intensity of every well on the plate was read using a Genios Plus Microplate reader (Tecan).

[2] = target: T2, hNGAL lipocalin mutein SEQ ID NO: 8; assay: solution competition ELISA; 0.1 nM SEQ ID NO: 8 with varied soluble ligand, free mutein captured on immobilised hAng-2
T2 construct: Mutein of mature hNGAL; Biotinylated with NHS-PEG4-Biotin for the SPR assay
T2 chain: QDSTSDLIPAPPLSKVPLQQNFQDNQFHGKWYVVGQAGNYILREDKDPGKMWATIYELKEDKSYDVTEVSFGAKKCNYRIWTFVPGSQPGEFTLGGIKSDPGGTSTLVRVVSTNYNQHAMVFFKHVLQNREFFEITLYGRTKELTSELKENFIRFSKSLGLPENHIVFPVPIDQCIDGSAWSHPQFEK
Method: as §1, §2

[3] = target: B2; assay: solution competition ELISA; 0.1 nM SEQ ID NO: 9 with varied soluble ligand, free mutein captured on immobilised hAng-2
Method: as §1, §2

[4] = target: T3, hNGAL lipocalin mutein SEQ ID NO: 11; assay: solution competition ELISA; 0.1 nM SEQ ID NO: 11 with varied soluble ligand, free mutein captured on immobilised hAng-2
T3 construct: Mutein of mature hNGAL; Biotinylated with NHS-PEG4-Biotin for the SPR assay
T3 chain: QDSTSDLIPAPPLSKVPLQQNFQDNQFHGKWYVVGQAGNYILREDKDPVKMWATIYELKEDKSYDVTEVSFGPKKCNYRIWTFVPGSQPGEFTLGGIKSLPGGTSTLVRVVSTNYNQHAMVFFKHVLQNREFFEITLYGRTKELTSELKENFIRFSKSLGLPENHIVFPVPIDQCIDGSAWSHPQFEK
Method: as §1, §2

[5] = target: benchmark antibody 1 (SEQ ID NOs: 17/18); assay: solution competition ELISA; 0.1 nM SEQ ID NO: 17/18 with varied soluble ligand, free antibody captured on immobilised hAng-2
[6] = target: T4, hNGAL lipocalin mutein SEQ ID NO: 1; assay: solution competition ELISA; 0.1 nM SEQ ID NO: 1 with varied soluble ligand, free mutein captured on immobilised hAng-2
T4 construct: Mutein of mature hNGAL
T4 chain: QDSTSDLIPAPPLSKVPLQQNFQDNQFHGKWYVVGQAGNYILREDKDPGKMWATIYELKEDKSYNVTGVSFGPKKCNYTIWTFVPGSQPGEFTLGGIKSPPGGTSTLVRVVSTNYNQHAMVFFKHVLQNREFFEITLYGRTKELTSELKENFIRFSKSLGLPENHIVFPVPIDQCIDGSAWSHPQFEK
Method: as §1, §2

[7] = target: T5, hNGAL lipocalin mutein SEQ ID NO: 3; assay: solution competition ELISA; 0.1 nM SEQ ID NO: 3 with varied soluble ligand, free mutein captured on immobilised hAng-2
T5 construct: Mutein of mature hNGAL
T5 chain: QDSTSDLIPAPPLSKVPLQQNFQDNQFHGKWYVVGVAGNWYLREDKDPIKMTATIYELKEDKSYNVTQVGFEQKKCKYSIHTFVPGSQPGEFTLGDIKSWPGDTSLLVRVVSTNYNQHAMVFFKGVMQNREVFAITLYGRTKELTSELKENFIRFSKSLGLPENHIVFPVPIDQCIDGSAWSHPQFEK
Method: as §1, §2

[8] = target: B1; assay: cell-based or functional assay
[9] = target: B1; assay: ELISA; Ang-2 coated, mutein detected by anti-Streptag-HRP
Method: Binding of muteins was tested by a sandwich ELISA assay.
20 μl of serially diluted muteins were incubated in PBS-T/BSA for 1h at room temperature (RT).
The residual supernatants were discarded and 20 μl HRP-labeled anti-Streptag antibody was added at a predetermined optimal concentration in PBS-T/BSA and incubated for 1 h at RT. After washing, 20 μl fluorogenic HRP substrate (QuantaBlu, Thermo) was added to each well, and the reaction was allowed to proceed for 15 to 60 minutes. The fluorescence intensity of every well on the plate was read using a fluorescence microplate reader (Tecan or Molecular Devices). Curve fitting was performed using GraphPad Prism 4 software.

[10] = target: B1; assay: SPR Biacore T200; biotinylated mutein captured, hAng-2 analyte, 1:1 model, 25 C
Method: In the SPR affinity assay, biotinylated muteins and negative control were captured on a sensor chip CAP using the Biotin CAPture Kit (GE Healthcare): Sensor Chip CAP is pre-immobilized with an ssDNA oligo. Undiluted Biotin CAPture Reagent (streptavidin conjugated with the complementary ss-DNA oligo) was applied at a flow rate of 2 μl/min for 300 s. Subsequently, 0.02 μg/mL of biotinylated muteins or negative control were applied for 300 s at a flow rate of 5 μl/min. […] The reference channel was loaded with Biotin CAPture Reagent only.
Applying a flow rate of 30 μL/min, a multi cycle kinetics approach was used with a sample contact time of 180 s and a dissociation time of 4600 s. All measurements were performed at 25° C. […] Data were evaluated with Biacore T200 Evaluation software (V 1.0). Double referencing was used. A 1:1 Binding model was used to fit the raw data even though the analyte was known to be a multimer.

[11] = target: B1; assay: competition ELISA; 0.5 nM hAng-2 pre-incubated with binder, free hAng-2 captured on hTie-2 Fc (competitor)
Method: All incubation steps were performed with shaking at 300 rpm, and the plate was washed after each incubation step with 80 μl PBS-T buffer (PBS, 0.05% Tween 20) for five times using a Biotek EL405 select CW washer (Biotek). In the first step, a 384 well plate was directly coated with 20 μl of soluble human hTie-2 Fc (Reliatech) at a concentration of […] in PBS over night at 4 ° C. After washing, h Tie-2 Fc coated wells were blocked with 60 μl PBS-T/BSA (2% BSA in PBS containing 0.1% Tween 20) for 1 h at room temperature.
Curve fitting was performed using GraphPad Prism 4 software.

[12] = target: B1; assay: competition cell ECL; hAng-2 pre-incubated with binder, free Ang-2 captured on HEK:hTie-2 cells (competitor)
Method: (§3) All incubation steps were performed at room temperature, and the plate was washed after each incubation step with 80 μl PBS buffer for two times using a Biotek EL405 select CW washer (Biotek). In the first step, a 384 well plate was precoated for 5 minutes with poly D lysine and washed twice with PBS. 10⁴ HEK:hTie-2 cells per well were seeded and allowed to adhere to the surface of the wells overnight at 37° C. . After washing, cell coated wells were blocked with 60 μl PBS/Casein (2% Casein in PBS) for 1 h at room temperature.
(§4) After washing, 35 μl surfactant-free reading buffer was added to each well and the ECL signal of every well was read using a Mesoscale Discovery reader.

[13] = target: T6, mouse angiopoietin-2 (mouse, UniProt O35608 19-496, limits assumed); assay: competition cell ECL; mAng-2 pre-incubated with binder, free Ang-2 captured on HEK:hTie-2 cells (competitor)
T6 construct: Bought recombinant protein; also called mouse Ang-2; mAng-2
T6 sequence (looked up): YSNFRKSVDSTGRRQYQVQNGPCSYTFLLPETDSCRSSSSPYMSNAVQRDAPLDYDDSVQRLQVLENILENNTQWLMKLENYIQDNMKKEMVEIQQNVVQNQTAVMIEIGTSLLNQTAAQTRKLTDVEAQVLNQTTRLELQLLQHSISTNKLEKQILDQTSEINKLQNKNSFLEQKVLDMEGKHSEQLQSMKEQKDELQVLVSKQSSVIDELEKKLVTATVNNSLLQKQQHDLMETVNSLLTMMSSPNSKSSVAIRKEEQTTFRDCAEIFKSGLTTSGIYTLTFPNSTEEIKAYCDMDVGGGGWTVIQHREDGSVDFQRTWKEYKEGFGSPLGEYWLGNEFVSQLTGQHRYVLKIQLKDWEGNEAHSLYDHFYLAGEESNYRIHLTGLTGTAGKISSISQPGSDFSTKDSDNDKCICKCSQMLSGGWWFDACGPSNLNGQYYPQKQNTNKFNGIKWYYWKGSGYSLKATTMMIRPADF
Method: as §3, §4

| Binder | IC50 [1] | IC50 [2] | IC50 [3] | IC50 [4] | IC50 [5] | IC50 [6] | IC50 [7] | IC50 mean, LEC proliferation assay (CellTiter-Glo) [8] | EC50 [9] | Kd [10] | koff [10] | IC50 [11] | IC50 [12] | IC50 [13] |
| --- | --- | --- | --- | --- | --- | --- | --- | --- | --- | --- | --- | --- | --- | --- |
| human angiopoietin-1 (ligand, UniProt Q15389 20-498, looked up, Bought recombinant protein; also called human Ang-1; hAng-1) SNQRRSPENSGRRYNRIQHGQCAYTFILPEHDGNCRESTTDQYNTNALQRDAPHVEPDFSSQKLQHLEHVMENYTQWLQKLENYIVENMKSEMAQIQQNAVQNHTATMLEIGTSLLSQTAEQTRKLTDVETQVLNQTSRLEIQLLENSLSTYKLEKQLLQQTNEILKIHEKNSLLEHKILEMEGKHKEELDTLKEEKENLQGLVTRQTYIIQELEKQLNRATTNNSVLQKQQLELMDTVHNLVNLCTKEGVLLKGGKREEEKPFRDCADVYQAGFNKSGIYTIYINNMPEPKKVFCNMDVNGGGWTVIQHREDGSLDFQRGWKEYKMGFGNPSGEYWLGNEFIFAITSQRQYMLRIELMDWEGNRAYSQYDRFHIGNEKQNYRLYLKGHTGTAGKQSSLILHGADFSTKDADNDNCMCKCALMLTGGWWFDACGPSNLNGMFYTAGQNHGKLNGIKWHYFKGPSYSLRSTTMMIRPLDF | 0.47 nM | 9.3 nM | 1.9 nM | 0.89 nM | 26 nM | – | – | – | – | – | – | – | – | – |
| B1 | 0.41 nM | 0.5 nM | 0.76 nM | 0.49 nM | 0.6 nM | 2.5 nM | 1.4 nM | – | – | – | – | – | – | – |
| B2 | – | – | – | – | – | – | – | 0.142 nM | 2.1 nM | 0.29 nM | 9.4e-05 s⁻¹ | 0.0929 nM | 3.82 nM | 1.39 nM |
